No end group written: not given here. *: point of attachment. Biotin = O=C1N[C@H]2[C@H](CS[C@H]2CCCCC(=O)*)N1; linker = not defined here
How the values were obtained:
[1] = biological target: PKA-phosphorylated full-length Tau (Homo sapiens) (UniProt P10636); assay: ELISA: plate coated with 0.1 µg/ml PKA-phosphorylated full-length Tau, IgG titrated 0.06 pM to 1 nM, anti-human Fc-peroxidase/TMB, absorbance 450 nm [panel B]
[2] = biological target: PKA-phosphorylated full-length Tau (Homo sapiens) (UniProt P10636); assay: SPR Biacore 2000, bivalent IgG1 analyte, ~824 RU PKA-phospho Tau, ligand density 2
[3] = biological target: PKA-phosphorylated full-length Tau (Homo sapiens) (UniProt P10636); assay: SPR Biacore 2000, bivalent IgG1 analyte, ~153 RU PKA-phospho Tau, ligand density 1
[4] = biological target: PKA-phosphorylated full-length Tau (Homo sapiens) (UniProt P10636); assay: ELISA: plate coated with 1 µg/ml PKA-phosphorylated full-length Tau, IgG titrated 0.06 pM to 1 nM, anti-human Fc-peroxidase/TMB, absorbance 450 nm [panel A]
Non-phospho. = biological target: T1, Non-phospho. (not fully specified; printed as Biotin - linker - GDTSPRHLSNVSSTGSID; reading uncertain); assay: ELISA: plate coated with 5 µg/ml IgG, 10 nM biotinylated peptide in solution, streptavidin-peroxidase/TMB, absorbance 450 nm
T1 construct: also called non-phosphorylated biotinylated Tau 401-418 peptide
T1 peptide: {Biotin-linker}-GDTSPRHLSNVSSTGSID
Experimental: FIG. 3. Binding of immobilized IgG antibodies to Tau-derived biotinylated peptides containing pS404 and/or pS409 as measured by ELISA. […] 10 nM of the biotinylated peptides shown in FIG. 3, and 5 μg/ml IgG, were used.
Specificity of the top five clones for phosphoserine 404 and phosphoserine 409 was also assessed by ELISA. In one experiment (FIG. 3), Nunc maxisorp microplates were coated with 5 μg/ml IgG in coating buffer (sodium carbonate pH9.6) for 70 minutes at ambient temperature. Non-specific binding sites were blocked with BBT for a minimum of 2 hours then the plates washed and 10 nM biotinylated peptide in BBT added. After 1.5 hours bound peptide was detected by a 65 minute incubation with peroxidase-conjugated Streptavidin and detection with TMB as described above. […] The peptides synthesized and used in this experiment (which correspond to amino acids 401-418 of full-length Tau) have the following amino acid sequences (Table B): […]

PKA-phosphorylated full-length Tau (Homo sapiens), sequence (P10636 other isoform, or with tags, fused parts or gaps limits assumed): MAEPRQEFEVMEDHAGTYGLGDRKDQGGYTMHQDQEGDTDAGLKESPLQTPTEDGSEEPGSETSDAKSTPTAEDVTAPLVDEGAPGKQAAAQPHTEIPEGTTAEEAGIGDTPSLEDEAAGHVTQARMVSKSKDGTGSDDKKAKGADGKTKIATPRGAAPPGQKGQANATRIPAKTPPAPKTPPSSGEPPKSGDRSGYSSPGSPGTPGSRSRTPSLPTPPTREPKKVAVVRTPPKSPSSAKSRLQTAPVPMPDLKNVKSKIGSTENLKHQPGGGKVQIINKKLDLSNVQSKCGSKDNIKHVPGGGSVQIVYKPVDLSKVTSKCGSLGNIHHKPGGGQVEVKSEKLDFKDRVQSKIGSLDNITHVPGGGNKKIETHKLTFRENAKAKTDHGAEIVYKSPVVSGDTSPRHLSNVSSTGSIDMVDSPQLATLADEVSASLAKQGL

EC50 (read off the curve) [1]: 20 pM | Kd [2]: 200 pM | koff [2]: 0.0003 s⁻¹ | kon [2]: 1.6e+06 M⁻¹ s⁻¹ | Kd [3]: 800 pM | koff [3]: 0.0012 s⁻¹ | kon [3]: 1.6e+06 M⁻¹ s⁻¹ | EC50 (read off the curve) [4]: 6 pM | binding result (Non-phospho.): no binding (tested: 10 nM)
B1: TAM20 IgG1 (antibody, V domains shown)
VH: EVQLVQSGAEVKKPGSSVKVSCKASGYTFTDYYMNWVRQAPGQGLEWIGDINPNRGGTTYNQKFKGRVTITVDKSTSTAYMELSSLRSEDTAVYYCASYYAVGYWGQGTTVTVSS
VL: DIVMTQTPLSLPVTPGEPASISCRSSQSLVHSHGRTYLHWYLQKPGQSPQLLIYKVSNRFFGVPDRFSGSGSGTDFTLKISRVEAEDVGVYFCSQTRHFPYTFGGGTKVEIKR
